This note sets out measurements from US20140087995A1 (published 2014).

Numbered stars: 1 amine (or outer) side, 2 acyl side, 3 side chain; on linkers, the order of the positions; unused ones are H or OH. Bridge positions count the residues as written; N and C are the ends. * marks the point of attachment. C20 diacid = O=C(O)CCCCCCCCCCCCCCCCCCC(=O)*; γGlu = O=C(O)[C@H](CCC(=O)[*:2])N[*:1]

T1: human amylin receptor (amylin 3(a) receptor: human calcitonin receptor plus RAMP-3) (human, UniProt P30988 25-474; O60896 24-148, limits assumed)
T1 sequence (looked up) 1: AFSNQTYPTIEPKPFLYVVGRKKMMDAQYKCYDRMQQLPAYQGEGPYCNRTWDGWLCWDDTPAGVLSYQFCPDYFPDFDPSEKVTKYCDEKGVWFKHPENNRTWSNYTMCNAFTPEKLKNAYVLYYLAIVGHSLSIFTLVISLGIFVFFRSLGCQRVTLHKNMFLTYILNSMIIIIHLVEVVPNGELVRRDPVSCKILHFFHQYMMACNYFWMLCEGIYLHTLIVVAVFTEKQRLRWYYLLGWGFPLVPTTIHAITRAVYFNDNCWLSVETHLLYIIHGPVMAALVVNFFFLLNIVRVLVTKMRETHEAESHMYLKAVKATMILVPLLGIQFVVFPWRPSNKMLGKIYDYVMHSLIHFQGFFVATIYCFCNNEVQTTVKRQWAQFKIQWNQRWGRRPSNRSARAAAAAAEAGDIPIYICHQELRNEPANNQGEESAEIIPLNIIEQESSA
T1 sequence (looked up) 2: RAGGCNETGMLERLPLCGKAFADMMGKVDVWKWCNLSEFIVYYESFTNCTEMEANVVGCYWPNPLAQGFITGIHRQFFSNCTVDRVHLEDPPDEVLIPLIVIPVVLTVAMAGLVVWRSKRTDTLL

T2: human calcitonin receptor (human, UniProt P30988 25-474)
T2 sequence (looked up): T1 sequence (looked up) 1

B1: N^α1-[(4S)-4-carboxy-4-(19-carboxynonadecanoylamino)butanoyl]-[Glu14,Arg17,Pro21,Pro27,His34]-h-amylin (peptide)
peptide: {C20 diacid-γGlu}-KCNTATCATQRLAEFLRHSSPNFGAIPSSTNVGHNTY-NH2
modifications: disulfide 2-7
SMILES: CC[C@H](C)[C@H](NC(=O)[C@H](C)NC(=O)CNC(=O)[C@H](Cc1ccccc1)NC(=O)[C@H](CC(N)=O)NC(=O)[C@@H]1CCCN1C(=O)[C@H](CO)NC(=O)[C@H](CO)NC(=O)[C@H](Cc1c[nH]cn1)NC(=O)[C@H](CCCNC(=N)N)NC(=O)[C@H](CC(C)C)NC(=O)[C@H](Cc1ccccc1)NC(=O)[C@H](CCC(=O)O)NC(=O)[C@H](C)NC(=O)[C@H](CC(C)C)NC(=O)[C@H](CCCNC(=N)N)NC(=O)[C@H](CCC(N)=O)NC(=O)[C@@H](NC(=O)[C@H](C)NC(=O)[C@@H]1CSSC[C@H](NC(=O)[C@H](CCCCN)NC(=O)CC[C@H](NC(=O)CCCCCCCCCCCCCCCCCCC(=O)O)C(=O)O)C(=O)N[C@@H](CC(N)=O)C(=O)N[C@@H]([C@@H](C)O)C(=O)N[C@@H](C)C(=O)N[C@@H]([C@@H](C)O)C(=O)N1)[C@@H](C)O)C(=O)N1CCC[C@H]1C(=O)N[C@@H](CO)C(=O)N[C@@H](CO)C(=O)N[C@H](C(=O)N[C@@H](CC(N)=O)C(=O)N[C@H](C(=O)NCC(=O)N[C@@H](Cc1c[nH]cn1)C(=O)N[C@@H](CC(N)=O)C(=O)N[C@H](C(=O)N[C@@H](Cc1ccc(O)cc1)C(N)=O)[C@@H](C)O)C(C)C)[C@@H](C)O
notes: also called compound 17
B2: N^α1-[(4S)-4-carboxy-4-(19-carboxynonadecanoylamino)butanoyl]-[Glu14,Arg17,Pro21,Pro27,Pro34]-h-amylin (peptide)
peptide: {C20 diacid-γGlu}-KCNTATCATQRLAEFLRHSSPNFGAIPSSTNVGPNTY-NH2
modifications: disulfide 2-7
SMILES: CC[C@H](C)[C@H](NC(=O)[C@H](C)NC(=O)CNC(=O)[C@H](Cc1ccccc1)NC(=O)[C@H](CC(N)=O)NC(=O)[C@@H]1CCCN1C(=O)[C@H](CO)NC(=O)[C@H](CO)NC(=O)[C@H](Cc1c[nH]cn1)NC(=O)[C@H](CCCNC(=N)N)NC(=O)[C@H](CC(C)C)NC(=O)[C@H](Cc1ccccc1)NC(=O)[C@H](CCC(=O)O)NC(=O)[C@H](C)NC(=O)[C@H](CC(C)C)NC(=O)[C@H](CCCNC(=N)N)NC(=O)[C@H](CCC(N)=O)NC(=O)[C@@H](NC(=O)[C@H](C)NC(=O)[C@@H]1CSSC[C@H](NC(=O)[C@H](CCCCN)NC(=O)CC[C@H](NC(=O)CCCCCCCCCCCCCCCCCCC(=O)O)C(=O)O)C(=O)N[C@@H](CC(N)=O)C(=O)N[C@@H]([C@@H](C)O)C(=O)N[C@@H](C)C(=O)N[C@@H]([C@@H](C)O)C(=O)N1)[C@@H](C)O)C(=O)N1CCC[C@H]1C(=O)N[C@@H](CO)C(=O)N[C@@H](CO)C(=O)N[C@H](C(=O)N[C@@H](CC(N)=O)C(=O)N[C@H](C(=O)NCC(=O)N1CCC[C@H]1C(=O)N[C@@H](CC(N)=O)C(=O)N[C@H](C(=O)N[C@@H](Cc1ccc(O)cc1)C(N)=O)[C@@H](C)O)C(C)C)[C@@H](C)O
notes: also called compound 32
B3: N^α1-[(4S)-4-carboxy-4-(19-carboxynonadecanoylamino)butanoyl]-[Glu14,Arg17,Pro21,Pro27,Pro37]-h-amylin (peptide)
peptide: {C20 diacid-γGlu}-KCNTATCATQRLAEFLRHSSPNFGAIPSSTNVGSNTP-NH2
modifications: disulfide 2-7
SMILES: CC[C@H](C)[C@H](NC(=O)[C@H](C)NC(=O)CNC(=O)[C@H](Cc1ccccc1)NC(=O)[C@H](CC(N)=O)NC(=O)[C@@H]1CCCN1C(=O)[C@H](CO)NC(=O)[C@H](CO)NC(=O)[C@H](Cc1c[nH]cn1)NC(=O)[C@H](CCCNC(=N)N)NC(=O)[C@H](CC(C)C)NC(=O)[C@H](Cc1ccccc1)NC(=O)[C@H](CCC(=O)O)NC(=O)[C@H](C)NC(=O)[C@H](CC(C)C)NC(=O)[C@H](CCCNC(=N)N)NC(=O)[C@H](CCC(N)=O)NC(=O)[C@@H](NC(=O)[C@H](C)NC(=O)[C@@H]1CSSC[C@H](NC(=O)[C@H](CCCCN)NC(=O)CC[C@H](NC(=O)CCCCCCCCCCCCCCCCCCC(=O)O)C(=O)O)C(=O)N[C@@H](CC(N)=O)C(=O)N[C@@H]([C@@H](C)O)C(=O)N[C@@H](C)C(=O)N[C@@H]([C@@H](C)O)C(=O)N1)[C@@H](C)O)C(=O)N1CCC[C@H]1C(=O)N[C@@H](CO)C(=O)N[C@@H](CO)C(=O)N[C@H](C(=O)N[C@@H](CC(N)=O)C(=O)N[C@H](C(=O)NCC(=O)N[C@@H](CO)C(=O)N[C@@H](CC(N)=O)C(=O)N[C@H](C(=O)N1CCC[C@H]1C(N)=O)[C@@H](C)O)C(C)C)[C@@H](C)O
notes: also called compound 8
B4: N^α1-[(4S)-4-carboxy-4-(19-carboxynonadecanoylamino)butanoyl]-[Glu14,Arg17,Pro21,Pro27,His35]-h-amylin (peptide)
peptide: {C20 diacid-γGlu}-KCNTATCATQRLAEFLRHSSPNFGAIPSSTNVGSHTY-NH2
modifications: disulfide 2-7
SMILES: CC[C@H](C)[C@H](NC(=O)[C@H](C)NC(=O)CNC(=O)[C@H](Cc1ccccc1)NC(=O)[C@H](CC(N)=O)NC(=O)[C@@H]1CCCN1C(=O)[C@H](CO)NC(=O)[C@H](CO)NC(=O)[C@H](Cc1c[nH]cn1)NC(=O)[C@H](CCCNC(=N)N)NC(=O)[C@H](CC(C)C)NC(=O)[C@H](Cc1ccccc1)NC(=O)[C@H](CCC(=O)O)NC(=O)[C@H](C)NC(=O)[C@H](CC(C)C)NC(=O)[C@H](CCCNC(=N)N)NC(=O)[C@H](CCC(N)=O)NC(=O)[C@@H](NC(=O)[C@H](C)NC(=O)[C@@H]1CSSC[C@H](NC(=O)[C@H](CCCCN)NC(=O)CC[C@H](NC(=O)CCCCCCCCCCCCCCCCCCC(=O)O)C(=O)O)C(=O)N[C@@H](CC(N)=O)C(=O)N[C@@H]([C@@H](C)O)C(=O)N[C@@H](C)C(=O)N[C@@H]([C@@H](C)O)C(=O)N1)[C@@H](C)O)C(=O)N1CCC[C@H]1C(=O)N[C@@H](CO)C(=O)N[C@@H](CO)C(=O)N[C@H](C(=O)N[C@@H](CC(N)=O)C(=O)N[C@H](C(=O)NCC(=O)N[C@@H](CO)C(=O)N[C@@H](Cc1c[nH]cn1)C(=O)N[C@H](C(=O)N[C@@H](Cc1ccc(O)cc1)C(N)=O)[C@@H](C)O)C(C)C)[C@@H](C)O
notes: also called compound 18
B5: N^α1-[(4S)-4-carboxy-4-(19-carboxynonadecanoylamino)butanoyl]-[Glu14,Arg17,Pro21,Pro27,Pro29]-h-amylin (peptide)
peptide: {C20 diacid-γGlu}-KCNTATCATQRLAEFLRHSSPNFGAIPSPTNVGSNTY-NH2
modifications: disulfide 2-7
SMILES: CC[C@H](C)[C@H](NC(=O)[C@H](C)NC(=O)CNC(=O)[C@H](Cc1ccccc1)NC(=O)[C@H](CC(N)=O)NC(=O)[C@@H]1CCCN1C(=O)[C@H](CO)NC(=O)[C@H](CO)NC(=O)[C@H](Cc1c[nH]cn1)NC(=O)[C@H](CCCNC(=N)N)NC(=O)[C@H](CC(C)C)NC(=O)[C@H](Cc1ccccc1)NC(=O)[C@H](CCC(=O)O)NC(=O)[C@H](C)NC(=O)[C@H](CC(C)C)NC(=O)[C@H](CCCNC(=N)N)NC(=O)[C@H](CCC(N)=O)NC(=O)[C@@H](NC(=O)[C@H](C)NC(=O)[C@@H]1CSSC[C@H](NC(=O)[C@H](CCCCN)NC(=O)CC[C@H](NC(=O)CCCCCCCCCCCCCCCCCCC(=O)O)C(=O)O)C(=O)N[C@@H](CC(N)=O)C(=O)N[C@@H]([C@@H](C)O)C(=O)N[C@@H](C)C(=O)N[C@@H]([C@@H](C)O)C(=O)N1)[C@@H](C)O)C(=O)N1CCC[C@H]1C(=O)N[C@@H](CO)C(=O)N1CCC[C@H]1C(=O)N[C@H](C(=O)N[C@@H](CC(N)=O)C(=O)N[C@H](C(=O)NCC(=O)N[C@@H](CO)C(=O)N[C@@H](CC(N)=O)C(=O)N[C@H](C(=O)N[C@@H](Cc1ccc(O)cc1)C(N)=O)[C@@H](C)O)C(C)C)[C@@H](C)O
notes: also called compound 37

One test deals with T1, human amylin receptor (amylin 3(a) …). Kind of test: cell-based or functional assay.
Take B1: the “hAmylin-R funct. EC50” value worked out at 0.268 nM.

Turning to B2, the “hAmylin-R funct. EC50” value was found to be 0.05 nM.

On to B3, for which the “hAmylin-R funct. EC50” value worked out at 0.082 nM.

As to B4, the “hAmylin-R funct. EC50” value amounted to 0.154 nM.

Regarding B5, the “hAmylin-R funct. EC50” value was determined as 0.092 nM.

For a further test, the target named is T2, human calcitonin receptor. Kind of test: cell-based or functional assay.
As for B1, the “Ratio hCT/hAmylin funct. (hCTR EC50 against hAmylin-R EC50)” value worked out at 8.8 and the “hCTR funct. EC50” value was found to be 2.35 nM.

Turning to B2, the “Ratio hCT/hAmylin funct. (hCTR EC50 against hAmylin-R EC50)” value stood at 6.6 and the “hCTR funct. EC50” value was 0.327 nM.

In the case of B3, the “Ratio hCT/hAmylin funct. (hCTR EC50 against hAmylin-R EC50)” value amounted to 1.1 and the “hCTR funct. EC50” value was determined as 0.087 nM.

For the molecule B4, the “Ratio hCT/hAmylin funct. (hCTR EC50 against hAmylin-R EC50)” value worked out at 4.8 and the “hCTR funct. EC50” value is 0.742 nM.

On to B5, for which the “Ratio hCT/hAmylin funct. (hCTR EC50 against hAmylin-R EC50)” value amounted to 4 and the “hCTR funct. EC50” value amounted to 0.372 nM.

In the next test the target is T1, human amylin receptor (amylin 3(a) …). Briefly: SPA competition binding, membranes of Amylin 3(a)/CRE-luc BHK cells, displacement of 125I-rat amylin (Assay V). Here is the method:
The binding assay was performed using scintillation proximity assay (SPA) beads (RPNQ0001) from PerkinElmer and cell membranes from the Amylin 3(a)/CRE-luc cells (as described in Assay (II)) were used. Membranes were prepared in the following way; the cells were rinsed with PBS and incubated with Versene for approximately 5 min before harvesting. The cells were flushed with PBS and the cell-suspension was centrifuged for 5 min at 1000 rpm. Cells were homogenized (ultrathurrax) in a buffer containing 20 mM Na-HEPES and 10 mM EDTA (pH 7.4) and centrifuged at 20.000 rpm for 15 min. The resulting pellet was resuspended, homogenized and centrifuged (20.000 rpm, 15 min) in a buffer containing 20 mM Na-HEPES and 0.1 mM EDTA (pH 7.4, buffer 2). The resulting pellet was resuspended in buffer 2 and protein concentration was measured (BCA protein Assay, Pierce). The homogenate was kept cold during the whole procedure. The membranes were kept at −80° C. until use. The assay was performed in a 384 well Optiplate (PerkinElmer) in a total volume of 40 ul. Membranes were mixed with SPA beads. Final concentration of membranes 35 ng/μL final and SPA beads was 0.05 mg/well. Test-compounds were dissolved in DMSO and further diluted in assay buffer (50 mM Hepes, pH 7.4, 1 mM CaCl2, 5 mM MgCl₂, 0.1% OA and 0.02% Tween20). […] The final mixture was incubated with shaking at 400 rpm for 120 min at 25° C. prior to centrifugation (1500 rpm, 10 min). Samples were analyzed on TopCounter™ (Packard). The IC₅₀ was calculated using (one site binding competition analysis) GraphPad Prism5 as a measure of receptor affinity.
(In general: In a radioligand displacement assay an active substance lowers the binding of a labelled ligand.)
For B1, the IC50 came to 0.878 nM.

On to B2, for which the IC50 is 0.1 nM.

As to B3, the IC50 amounted to 0.072 nM.

Turning to B4, the IC50 came to 0.554 nM.

As to B5, the IC50 came out at 0.97 nM.

By IC50 is commonly meant the midpoint of a concentration-inhibition curve.
